According to US11447550B2, “Peptides for molecular detection of PD-L1” (THE CURATORS OF THE UNIVERSITY OF MISSOURI, priority 2016, dated 2022):
Ends that are not written are not given here.

Target: PD-L1 (Homo sapiens, UniProt Q9NZQ7)
Experiment: Immunohistochemistry using Cy5-peptide (fluorescence) on FFPE tissues and lung cancer TMA
Format: binding
Design: Seven PD-L1 expressing NSCLC patient tissues were obtained from the MU OneHealth tissue bank; tissue MU OneHealth tissue bank; U.S. Biomax (TMA) LC1923; host or cells: FFPE placenta, seven NSCLC patient tissues, 192-case lung cancer tissue microarray, four Hodgkin's lymphoma cases
From the text: PD-L1 expression was investigated in the same seven FFPE tissues and 192 lung cancer cases on a microarray using our peptide conjugated with Cy5 fluorophore. A lung cancer tissue microarray (TMA) was purchased from U.S. Biomax that contains 192 separate cases of various types of lung cancers (LC1923, biomax.us). In addition, seven NSCLC patient tissues were obtained from the Mizzou OneHealth tissue bank and de-identified according to IRB protocols. Paraffin-embedded tissue slides were baked overnight, then de-waxed and rehydrated according to standard protocols. Tissue sections were then subjected to antigen retrieval in EDTA at 95° C. for 20 minutes in EDTA ([…]). The solution was cooled for an additional 20 minutes on the bench top prior to buffer rinse. Tissues were then incubated with 15 μM Cy5-conjugated peptide for 2 hours in a humid chamber in the dark at RT. After 2 hours, slides were washed with buffer. The slides were then mounted using nucleus-specific DAPI counterstain and cover slipped. Slides were then imaged using fluorescence microscopy on a Leica DM5500 and compared to the same sections which had been stained with the Ventana antibody. For fluorescent analysis, DAPI channels and Cy5 channels were overlaid to image cell nuclei and PD-L1 expression, respectively.
Staining of the placenta and seven selected NSCLC patient tissues was again compared using the SP263 antibody and RK-10-Cy5 which was conjugated with a Cy5 fluorophore (FIG. 16). To stain with the fluorescent PD-L1 peptide, antigen retrieval was performed and tissue slides were treated with 15 μM fluorescent peptide in a dark, humid chamber for 2 hours, washed with buffer, then counter-stained and mounted with DAPI nucleus stain. Peptide-stained slides were imaged on a Leica DM5500 using channels specific for DAPI or Cy5, and channels were overlaid to examine PD-L1 expression. To confirm the data from the IHC stained tissues, the same seven patient tissues A-G were stained with RK-10-Cy5 (FIG. 10). […]

PD-L1, sequence (Q9NZQ7 19-290): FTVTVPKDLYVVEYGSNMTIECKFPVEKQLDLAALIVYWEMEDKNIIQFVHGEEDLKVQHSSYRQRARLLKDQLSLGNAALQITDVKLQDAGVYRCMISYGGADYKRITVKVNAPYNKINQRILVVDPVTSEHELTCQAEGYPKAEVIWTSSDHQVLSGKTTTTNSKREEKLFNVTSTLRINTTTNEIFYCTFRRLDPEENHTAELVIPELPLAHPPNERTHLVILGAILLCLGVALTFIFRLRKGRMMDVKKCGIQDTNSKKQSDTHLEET

Cy5-GSGSGSTYLCGAISLAPKAQIKESL [RK-10-Cy5]
tumor staining in lung cancer tissue microarray (192 lung cancer cases (U.S. Biomax TMA), majority of cases, FIG. 11 panels d, e, f): consistent, specific staining in tumor cells and immune infiltrate
staining of Reed-Sternberg cells (four Hodgkin's lymphoma patient samples, FIG. 13): showed PD-L1 staining
fluorescent tumor staining in NSCLC patient tissues (seven NSCLC patient tissues A-G, 15 μM fluorescent peptide, 2 hours, FIG. 10): stained many areas of tumor that the SP263 antibody did not
